Experimental data: publication PMC5605686, “Ang-(1-7) is an endogenous β-arrestin-biased agonist of the AT1 receptor with protective action in cardiac hypertrophy” (Scientific Reports, 2017)

T1: angiotensin II type 1 receptor (UniProt P30556 1-359)
T1 construct: AngII type 1 (AT1) receptor, a GPCR; also called AT1R; AT1 receptor; source: HEK293T, transiently transfected, on whole cells
T1 sequence (looked up): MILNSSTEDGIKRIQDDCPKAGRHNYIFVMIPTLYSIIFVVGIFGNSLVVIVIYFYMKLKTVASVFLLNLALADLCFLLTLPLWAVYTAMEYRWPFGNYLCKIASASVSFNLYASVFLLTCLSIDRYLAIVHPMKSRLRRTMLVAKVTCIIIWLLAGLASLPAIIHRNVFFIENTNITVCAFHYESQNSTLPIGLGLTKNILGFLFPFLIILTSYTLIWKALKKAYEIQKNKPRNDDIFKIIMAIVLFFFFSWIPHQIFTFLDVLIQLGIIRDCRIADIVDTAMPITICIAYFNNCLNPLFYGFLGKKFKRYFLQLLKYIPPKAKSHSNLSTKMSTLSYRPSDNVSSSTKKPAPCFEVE

T2: AT1R-GFP (UniProt P30556 1-359)
T2 sequence (looked up): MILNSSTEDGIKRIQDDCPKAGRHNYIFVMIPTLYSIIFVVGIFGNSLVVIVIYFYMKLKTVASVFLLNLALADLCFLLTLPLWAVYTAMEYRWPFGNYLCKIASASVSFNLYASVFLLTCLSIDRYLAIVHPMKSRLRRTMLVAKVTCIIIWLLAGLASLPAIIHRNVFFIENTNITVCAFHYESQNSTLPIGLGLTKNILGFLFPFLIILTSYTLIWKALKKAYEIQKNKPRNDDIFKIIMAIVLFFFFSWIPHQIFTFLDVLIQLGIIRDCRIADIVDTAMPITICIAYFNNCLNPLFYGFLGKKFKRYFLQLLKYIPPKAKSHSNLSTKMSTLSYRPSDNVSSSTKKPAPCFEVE


What was measured:
[1] = system: isoproterenol-induced cardiac hypertrophy; assay: Isoproterenol-induced cardiac hypertrophy in rats (HW/BW ratio, left ventricular wall thickness); assay type: in vivo, Wistar rats; settings: co-treatment with Ang-(1-7), 10 mg/kg per day orally, 7 days
Protocol: The isoproterenol-induced cardiac hypertrophy experimental model was chosen aiming to avoid any involvement of the RAS, as it is known that other models such as pressure-overload, SHR, or mRen2 involve RAS components[50],[60],[61]. Cardiac hypertrophy was induced in male, 6 weeks-old Wistar rats by administration of Isoproterenol [(Iso) 2 mg/kg per day, i.p. diluted in saline, for 7 days]. All experimental protocols were performed in accordance with the Brazilian Council for Control of Animal Experimentation - “Conselho Nacional de Controle de Experimentação Animal” (CONCEA), Brazil; and approved by the Animal Ethical Committee from the Ribeirão Preto Medical School, University of São Paulo (CEUA).
Rats receiving Iso were randomly submitted to treatment for 7 days with either vehicle, Ang-(1-7) [24 μg/kg per hour, via ALZET® osmotic minipumps (Durect, Cupertino, CA, USA)], Ang-(1-7) plus Losartan (10 mg/kg per day orally), Ang-(1-7) plus A779 (744 μg/kg per day i.p.), or Ang-(1-7) plus Losartan plus A779 (same doses as described). Doses and administration methods of drugs were based in previously published literature[62]–[66].
Cardiac hypertrophy was confirmed by cardiac mass and histomorphometric analyses. To determine cardiac mass, hearts were removed, dried and weighted. Heart weight (HW) was normalized by the body weight (BW) (HW/BW*1000). For histomorphometric analysis, hearts were cut transversely, fixed in paraformaldehyde (4%) for 24 hours, and kept in ethanol (70%) until dehydration, which consisted in sequential washes with 70, 80, 90 and 100% ethanol. Samples were cleared in xylene and embedded in paraffin. Transversal sections (6 µm) were obtained from the cardiac samples at intervals of 40 µm and stained with hematoxylin and eosin. Images were captured using an Olympus BK 50 microscope (Olympus Corporation of the Americas, Center Valley, PA, USA) equipped with a SPOT RT3 digital camera (Diagnostic Instruments, Inc., Sterling Heights, MI, USA) and measured with ImageJ software (NIH, USA).

[2] = molecular target: T1, angiotensin II type 1 receptor; assay: radioligand binding; competition against 0.5 nM [^3H]AngII on whole HEK293T cells transiently expressing AT1R; 24 h at 4 °C; 25 mM Tris-HCl pH 7.4, 5 mM MgCl2, 0.1% BSA, 100 μg/mL bacitracin; settings: one partner purified
[3] = molecular target: T2, AT1R-GFP; assay: cell-based or functional assay
[4] = molecular target: T1, angiotensin II type 1 receptor; assay: cell-based or functional assay

Row | Molecule | blockade of the effect of Ang-(1-7) on the cardiovascular parameters (HW/BW, wall thickness, EDP) [1] | pKi [2] | recruitment of β-arr1-RLucII to AT1R-GFP (BRET), pEC50 of the agonist [3] | β-arrestin 1 conformational change (intramolecular BRET, RLucII-β-arr1-GFP10) in HEK293T cells expressing AT1R, pEC50 [4]
1 | CCCCc1nc(Cl)c(CO)n1Cc1ccc(-c2ccccc2-c2nn[nH]n2)cc1 [Losartan, reference compound] | did not prevent the effect of Ang-(1-7) | – | – | –
2 | DRVYIHP (heptapeptide angiotensin-(1-7), cut from AngII by ACE2 or from AngI by endopeptidases; printed in three-letter code; also called Ang-(1-7); Ang1-7) [angiotensin-(1-7)] | – | 6.66 | 6.38 | 6.61
